Results on three molecules are retold here after PMC3795256, “Dynamic Regulation of Ero1α and Peroxiredoxin 4 Localization in the Secretory Pathway*^([image sbox.jpg])” (The Journal of Biological Chemistry, 2013).

B2: recombinant human ERp44 (natural protein, UniProt Q9BS26 30-406, looked up)
chain: EITSLDTENIDEILNNADVALVNFYADWCRFSQMLHPIFEEASDVIKEEFPNENQVVFARVDCDQHSDIAQRYRISKYPTLKLFRNGMMMKREYRGQRSVKALADYIRQQKSDPIQEIRDLAEITTLDRSKRNIIGYFEQKDSDNYRVFERVANILHDDCAFLSAFGDVSKPERYSGDNIIYKPPGHSAPDMVYLGAMTNFDVTYNWIQDKCVPLVREITFENGEELTEEGLPFLILFHMKEDTESLEIFQNEVARQLISEKGTINFLHADCDKFRHPLLHIQKTPADCPVIAIDSFRHMYVFGDFKDVLIPGKLKQFVFDLHSGKLHREFHHGPDPTDTAPGEQAQDVASSPPESSFQKLAPSEYRYTLLRDRDEL
notes: human ERp44, recombinant; a construct made in E. coli probably lacks the signal peptide; source: E. coli BL21 (DE3), purified (HisTrap, Superdex 200, Resource Q)
B3: recombinant human Ero1α (WT) (natural protein, UniProt Q96HE7 24-468, looked up)
chain: EEQPPETAAQRCFCQVSGYLDDCTCDVETIDRFNNYRLFPRLQKLLESDYFRYYKVNLKRPCPFWNDISQCGRRDCAVKPCQSDEVPDGIKSASYKYSEEANNLIEECEQAERLGAVDESLSEETQKAVLQWTKHDDSSDNFCEADDIQSPEAEYVDLLLNPERYTGYKGPDAWKIWNVIYEENCFKPQTIKRPLNPLASGQGTSEENTFYSWLEGLCVEKRAFYRLISGLHASINVHLSARYLLQETWLEKKWGHNITEFQQRFDGILTEGEGPRRLKNLYFLYLIELRALSKVLPFFERPDFQLFTGNKIQDEENKMLLLEILHEIKSFPLHFDENSFFAGDKKEAHKLKEDFRLHFRNISRIMDCVGCFKCRLWGKLQTQGLGTALKILFSEKLIANMPESGPSYEFHLTRQEIVSLFNAFGRISTSVKELENFRNLLQNIH
notes: human Ero1α, wild type, recombinant; also called purified human Ero1α; source: recombinant, purified

What all share (settings): both partners purified
Test [1] addresses B2. Put plainly: SPR; ProteOn XPR36; Ero1α (WT) or Prx4 amine-coupled to a GLC chip, PDI or ERp44 as analyte (0.444–36 μM); 25 °C; 20 mM HEPES-NaOH pH 7.4, 150 mM NaCl, 0.001% Tween, 2 mM EDTA; two-state model.
The target of test [2] is B2. Put plainly: SPR; ProteOn XPR36; Ero1α (WT) or Prx4 amine-coupled to a GLC chip, ERp44 as analyte (0.444–36 μM); 25 °C; 20 mM HEPES-NaOH pH 6.4, 150 mM NaCl, 0.001% Tween, 2 mM EDTA; two-state model.
For test [3], the target named is B3. Briefly: SPR; ProteOn XPR36; Ero1α (WT) or Prx4 amine-coupled to a GLC chip, PDI or ERp44 as analyte (0.444–36 μM); 25 °C; 20 mM HEPES-NaOH pH 7.4, 150 mM NaCl, 0.001% Tween, 2 mM EDTA; two-state model.
Test [4] has as its target B3. Put plainly: SPR; ProteOn XPR36; Ero1α (WT) or Prx4 amine-coupled to a GLC chip, ERp44 as analyte (0.444–36 μM); 25 °C; 20 mM HEPES-NaOH pH 6.4, 150 mM NaCl, 0.001% Tween, 2 mM EDTA; two-state model.
The target in test [5] is T1, recombinant human PDI (human, UniProt P07237 18-508).
T1 construct: human PDI, recombinant; also called protein disulfide isomerase; source: recombinant, purified
T1 sequence (P07237 18-508): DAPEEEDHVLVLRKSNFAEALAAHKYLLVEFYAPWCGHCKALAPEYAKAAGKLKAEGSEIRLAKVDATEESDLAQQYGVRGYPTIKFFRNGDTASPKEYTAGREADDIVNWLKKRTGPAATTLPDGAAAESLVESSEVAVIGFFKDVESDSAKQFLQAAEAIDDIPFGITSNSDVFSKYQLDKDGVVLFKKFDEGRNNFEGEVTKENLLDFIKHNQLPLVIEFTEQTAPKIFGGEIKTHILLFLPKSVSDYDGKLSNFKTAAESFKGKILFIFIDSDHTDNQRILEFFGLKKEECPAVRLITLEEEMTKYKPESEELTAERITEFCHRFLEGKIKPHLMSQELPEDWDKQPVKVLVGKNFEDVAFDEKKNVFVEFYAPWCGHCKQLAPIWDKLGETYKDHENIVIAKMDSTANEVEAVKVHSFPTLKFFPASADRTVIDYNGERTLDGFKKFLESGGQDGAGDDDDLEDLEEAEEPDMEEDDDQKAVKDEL
Briefly: SPR; ProteOn XPR36; Ero1α (WT) or Prx4 amine-coupled to a GLC chip, PDI or ERp44 as analyte (0.444–36 μM); 25 °C; 20 mM HEPES-NaOH pH 7.4, 150 mM NaCl, 0.001% Tween, 2 mM EDTA; two-state model.

B1: recombinant human Prx4 (natural protein, UniProt Q13162 38-271, looked up)
chain: WETEERPRTREEECHFYAGGQVYPGEASRVSVADHSLHLSKAKISKPAPYWEGTAVIDGEFKELKLTDYRGKYLVFFFYPLDFTFVCPTEIIAFGDRLEEFRSINTEVVACSVDSQFTHLAWINTPRRQGGLGPIRIPLLSDLTHQISKDYGVYLEDSGHTLRGLFIIDDKGILRQITLNDLPVGRSVDETLRLVQAFQYTDKHGEVCPAGWKPGSETIIPDPAGKLKYFDKLN
notes: human Prx4, recombinant; a construct made in E. coli probably lacks the signal peptide; also called purified human Prx4; peroxiredoxin 4; source: E. coli BL21 (DE3), purified (HisTrap, Superdex 200, Resource Q)
Take B1: the Kd in test [1] is 17.9 µM; in test [2], 6.92 µM.

Take B2: the Kd stood at 10.4 µM in test [3] and 5.15 µM in test [4]. On to B3, for which the Kd in test [5] amounted to 1.94 µM.
